Consider three molecules from US20160158359A1.

The target in assay [1] is recombinant HLA-A*03:01 MHC class I molecule (human). Nature of the assay: REVEAL MHC-peptide binding assay, stabilisation of ternary complex with recombinant MHC. Conditions: remark: other sources report otherwise; scale: score, % of positive control peptide.
In assay [2] the target is recombinant HLA-A*02:01 MHC class I molecule (human). The description is as above. Conditions: remark: other sources report otherwise; scale: score, % of positive control peptide.
In assay [3] the target is HLA-A*11:01 recombinant MHC class I molecule (human). Put plainly: REVEAL MHC-peptide binding assay, stabilisation of ternary MHC-peptide complex, recombinant HLA. Conditions: remark: other sources report otherwise; scale: % of positive control peptide.
The target in assay [4] is HLA-B*08:01 recombinant MHC class I molecule (human). The assay is described as above. To be noted: remark: other sources report otherwise; scale: % of positive control peptide.
The target of assay [5] is HLA-A*03:01 recombinant MHC class I molecule (human). Nature of the assay: REVEAL MHC-peptide complex stabilisation assay, recombinant HLA-A*03:01. Conditions: remark: other sources report otherwise.

For the molecule VAFIIFWVR [… synthetic 9-mer peptide (overlapping reference peptide 1, K29R)], the In Vitro Score in assay [1] is 0.7; in assay [2], 1.2.
For VAFIIFWVR, the In Vitro Score stood at 34.6 in assay [3] and 0.1 in assay [4].
Turning to IFWVQRGAK […], the In Vitro Score (% of positive control peptide) in assay [5] was 7.
